Test results from PMC3386216 (Molecular Biology of the Cell, 2012).

How the values were obtained:
[1] = biological target: Sac1 (amino acids 2–521) (untagged recombinant, SPR) (S. cerevisiae) (UniProt P32368); assay: SPR
[2] = biological target: T1, GST-Sac1 (amino acids 2–521) (S. cerevisiae, UniProt P32368 2-521); assay: pull-down
T1 sequence: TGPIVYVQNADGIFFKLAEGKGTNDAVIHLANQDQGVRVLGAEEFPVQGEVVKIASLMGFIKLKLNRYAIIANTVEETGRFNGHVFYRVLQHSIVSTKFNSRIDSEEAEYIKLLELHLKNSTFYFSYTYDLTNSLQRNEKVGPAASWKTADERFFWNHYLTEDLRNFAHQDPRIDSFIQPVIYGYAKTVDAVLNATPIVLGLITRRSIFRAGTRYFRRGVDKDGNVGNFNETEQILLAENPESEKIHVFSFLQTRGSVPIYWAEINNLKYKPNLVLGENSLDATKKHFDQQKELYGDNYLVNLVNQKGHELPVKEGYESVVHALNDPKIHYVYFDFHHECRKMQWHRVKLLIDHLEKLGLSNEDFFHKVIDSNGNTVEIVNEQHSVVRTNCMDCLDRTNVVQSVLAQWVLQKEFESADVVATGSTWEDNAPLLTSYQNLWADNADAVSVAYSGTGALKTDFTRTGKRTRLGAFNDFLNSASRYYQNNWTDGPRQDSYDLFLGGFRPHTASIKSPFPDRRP

B1: Vps74ΔN59 (domain or fragment)
chain: DNINIPTLTLMEEVLLMGLRDREGYLSFWNDSISYALRGCIIIELALRGKIRILDDSARKRFDLSERLIEVIDSSKTGEVLLDETLQLMKNDEPLSISNWIDLLSGETWNLLKINYQLKQVRERLAKGLVDKGVLRTEMKNFFLFDMATHPIADASCKEAIKRRVLSVLVSRNMELSYNEYFPETTSFKIIRTLALICGSYGANVLENVLTTLEYEKRDKAISRAEEIMAQFSQYPFDLEKETELGVSVNLNKEVKEEIENNPGHDLQLEVIAGVFEVFSRMDMLL
**Q.** How did the Kd [1] turn out when B1 was run?
**A.** Its Kd is 4.2 µM.

B2: His- and T7-tagged Vps74 (natural protein)
chain: MSTLQRRRVNRADSGDTSSIHSSANNTKGDKIANIAVDGDDDNGTNKKIAYDPEESKLRDNINIPTLTLMEEVLLMGLRDREGYLSFWNDSISYALRGCIIIELALRGKIRILDDSARKRFDLSERLIEVIDSSKTGEVLLDETLQLMKNDEPLSISNWIDLLSGETWNLLKINYQLKQVRERLAKGLVDKGVLRTEMKNFFLFDMATHPIADASCKEAIKRRVLSVLVSRNMELSYNEYFPETTSFKIIRTLALICGSYGANVLENVLTTLEYEKRDKAISRAEEIMAQFSQYPFDLEKETELGVSVNLNKEVKEEIENNPGHDLQLEVIAGVFEVFSRMDMLL
**Q.** What does the source list for B2?
**A.** binding result [2]: binds; Kd [1]: 3.8 µM
